Target: Lag3 (lymphocyte-activation gene 3), on transfected SH-SY5Y cells (not stated (human or mouse cDNA cloned)) (UniProt Q61790)
Test: cell surface binding assay (streptavidin-alkaline phosphatase staining); SH-SY5Y cells transfected with Lag3 or its deletion mutants; biotin-labelled ligand at different concentrations (monomer equivalent) in DMEM with 10% FBS, 2 h at RT; washed, fixed, bound biotin detected with streptavidin-AP and BCIP/NBT; intensity by ImageJ, KD by GraphPad Prism

Lag3 (lymphocyte-activation gene 3), on transfected SH-SY5Y cells (not stated (human or mouse cDNA cloned)), sequence (Q61790 24-521): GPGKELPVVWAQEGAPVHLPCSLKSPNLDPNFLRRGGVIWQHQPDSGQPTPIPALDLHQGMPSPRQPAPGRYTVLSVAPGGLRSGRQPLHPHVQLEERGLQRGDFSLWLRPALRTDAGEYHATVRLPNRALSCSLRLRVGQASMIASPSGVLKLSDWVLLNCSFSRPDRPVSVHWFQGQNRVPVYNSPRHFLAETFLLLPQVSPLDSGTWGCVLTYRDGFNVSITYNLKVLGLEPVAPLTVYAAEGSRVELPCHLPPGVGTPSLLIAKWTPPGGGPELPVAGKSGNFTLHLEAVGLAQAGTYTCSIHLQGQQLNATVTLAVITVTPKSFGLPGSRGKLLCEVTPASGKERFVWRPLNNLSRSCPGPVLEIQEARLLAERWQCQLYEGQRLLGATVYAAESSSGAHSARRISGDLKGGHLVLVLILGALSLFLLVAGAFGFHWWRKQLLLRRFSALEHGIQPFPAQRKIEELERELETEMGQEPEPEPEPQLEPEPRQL

- Kd: 227 nM
Substance: Tau PFF derived from PSP (progressive supranuclear palsy) seeds

Source: PMC11040377
